This note sets out measurements from patent publication US20170015742A1 (published 2017).

Numbering of substitutions follows the chain as printed.

Sequences and labels used below:
B1: hBDI-9E8.8 (antibody, V domains shown)
VH: EVTLRESGPALVKPTQTLTLTCTFSGFSLSTYGMGVGWIRQPPGKGLEWLANIWWDDDKYYNPSLKNRLTISKDTSKNQAVLTITNMDPVDTATYYCARIESIGTTYSFDYWGQGTMVTVSS
VL: EFVLTQSPGTLSLSPGERATLSCERSSGDIGDSYVSWYQQKPGQAPRLVIYADDQRPSGIPDRFSGSGSGTDFTLTISRLEPEDFAVYYCQSYDINIDIVFGGGTKVEIK
notes: Humanized IgG
B2: hBDI-5H1.7 (antibody, V domains shown)
VH: EVTLKESGPALVKPTQTLTLTCTFSGFSLSTFGMGVGWIRQPPGKALEWLANIWWDDDKYYNPSLKNRLTISKDTSKNQAVLTITNMDPVDTATYYCARISTGISSYYVMDAWGQGTTVTVSS
VL: B1 VL with F2I, S33T, V49L, A52G, D53N, I95S, N96D
notes: Humanized IgG
B3: hBDI-5H1.8 (antibody, V domains shown)
VH: B2 VH
VL: B1 VL with S33T, A52G, D53N, I95S, N96D
notes: Humanized IgG
B4: hBDI-9E8.13 (antibody, V domains shown)
VH: B1 VH
VL: DFQLTQSPSSLSASVGDRVTITCERSSGDIGDSYVSWYQQKPGKAPKNVIYADDQRPSGVPSRFSGSGSGNSASLTISSLQPEDFATYYCQSYDINIDIVFGQGTKVEIK
notes: Humanized IgG
B5: hBDI-5H1.13 (antibody, V domains shown)
VH: B2 VH
VL: B4 VL with S33T, A52G, D53N, S74T, Y89F, I95S, N96D
notes: Humanized IgG
B6: BDI-6A3-A9 (antibody, IgG2b, V domains shown)
VH: EVQLVESGGGLVQPGRSLKFSCAASGFSFSDSAMAWVRQAPKKGLEWVATIIYDGSGTYYRDSVKGRFTISRDNAKSTLYLQMDSLRSEDTATYYCARLGFNYGNYGYYVMDAWGQGASVTVSS
VL: QFTLTQPKSVSGSLRNTITIPCERSSGDIGDSYVSWYQQHLGRPPINVIFADDQRPSEVSDRFSGSIDSSSNSASLTITNLQMDDEADYFCQSYDSNIDINIVFGGGTKLTVL
notes: Rat hybridoma monoclonal antibody
B7: BDI-5G2-F9 (antibody, IgG2b, V domains shown)
VH: QVTLKESGPGILQPSQTLSLTCTFSGFSLSTFGMGVGWIRQPSGKGLEWLANIWWDDDKYYNPSLKNRLTISKDTSNSQAFLEITNVDTADTATYYCARISTGISSYYVMDAWGQGASVTVSS
VL: QFTLTQPKSVSGSLRSTITIPCERSSGDIGDTYVSWYQQHLGRPPINVIYGNDQRPSEVSDRFSGSIDSSSNSASLTITNLQMDDEADYFCQSYDSDIDIVFGGGTKLTVL
notes: as for B6
B8: BDI-1E1-D5 (antibody, IgG2b, V domains shown)
VH: EVKLQQSGDELVRPGASVKMSCKASGYTFTDYVMHWVKQSPGQGLEWIGTIIPLIDTTSYNQKFKGKATLTADKSSNTAYMELSRLTSEDSAVYYCARTSPYYYSSYDVMDAWGQGASVTVSS
VL: NIQLTQSPSLLSASVGDRVTLSCKGSQNINNYLAWYQQKLGEAPKLLIYKTNNLQTGIPSRFSGCGSGTDYTLTISSLHSEDLATYYCYQYDNGYTFGAGTKLELK
notes: as for B6

T2 sequence (P01127 82-190 limits assumed): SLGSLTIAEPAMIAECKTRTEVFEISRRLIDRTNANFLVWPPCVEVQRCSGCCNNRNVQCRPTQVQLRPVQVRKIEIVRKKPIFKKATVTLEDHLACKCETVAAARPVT

For the first experiment, the target named is T1, Human PDGF-BB (human, UniProt P01127 82-190).
T1 construct: Recombinant human PDGF-BB, a homodimer of two B chains; also called hPDGF-BB; huPDGF-BB
T1 sequence (P01127 82-190 limits assumed): as above
The experiment is described as follows: SPR (Biacore), antibody captured via anti-human Fc, antigen in solution. Summed up: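 Antibodies or DVD-Ig molecules (1 μg/ml) were captured on an anti-human Fc CM5 surface, with antigen injected in solution and responses referenced to the capture-only surface. Rate constants came from a global 1:1 Langmuir fit, and KD = koff/kon.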
On the technique in general: Surface plasmon resonance follows binding to a sensor surface in real time, without labels.
Regarding B1, the kon is at least 1e+07 M⁻¹ s⁻¹.
Take B2: the kon was at least 1e+07 M⁻¹ s⁻¹.
Still for that read-out and setting: the figure for B3 is at least 1e+07 M⁻¹ s⁻¹.
Same read-out and setting: the figure for B4 is at least 1e+07 M⁻¹ s⁻¹; for B5 it is at least 1e+07 M⁻¹ s⁻¹.

Another experiment has as its target T2, recombinant human PDGF-BB (human, UniProt P01127 82-190).
T2 construct: Bought (CST cat#8912BF), biotinylated for the ELISAs; Dimer of two B chains; also called huPDGF-BB; hPDGF-BB
The experiment in a line: competition ELISA: blocks biotin-hPDGF-BB binding to coated hPDGF-Rβ-Fc. The method, then:
Plates were then washed four times with wash buffer (TBS, 0.05% Tween-20) and blocked with Superblock blocking buffer (Thermo Scientific, cat#37535). During the blocking step, supernatants, antibodies, benchmark compounds or DVD-Ig were diluted in assay diluent (10% Superblock containing 0.05% surfactamps) and an eight point titration of each sample molecule was performed. […] Following incubation, plates were washed four times with wash buffer. Detection reagent Streptavidin-polyHRP-40 (Fitzgerald, cat#65r-s104phrp) was diluted in assay diluent and added to plates (50 μL) for 45 minutes at 25° C. with shaking. Plates were washed four times with wash buffer and developed with the addition of Enhanced K-blue TMB substrate (Neogen, cat#308177). The reaction was stopped with 2N sulfuric acid (VWR, cat# BDH3500-1) and the absorbance was read at 450 nm-570 nm. […] Data was analyzed using Softmax Pro 4.8 software and IC₅₀ values calculated using a sigmoidal dose response (variable slope) fit in GraphPad Prism 5.
In general terms: ELISA stands for enzyme-linked immunosorbent assay.
In the case of B6, the IC50 came out at 3.23 nM.
Still for that read-out and setting: the figure for B7 is 1.06 nM; for B8 it is above 10 nM.

A further experiment deals with T1, Human PDGF-BB. The experiment is described as follows: SPR (Biacore), antibody captured via anti-human Fc, antigen in solution; footnote *: heterogeneous off-rate. As to the method: For example, approximately 9000 RU of goat anti-human Fc specific polyclonal antibody (Thermo Fisher Scientific Inc., Rockford, Ill.) diluted in 10 mM sodium acetate (pH 4.5) is directly immobilized across a CM5 research grade biosensor chip using a standard amine coupling kit according to manufacturer's instructions and procedures at 25 μg/ml. Unreacted moieties on the biosensor surface were blocked with ethanolamine. For kinetic analysis, rate equations derived from the 1:1 Langmuir binding model were fitted simultaneously to multiple antigen injections (using global fit analysis) with the use of Scrubber 2 (BioLogic Software), Biacore Biaevaluation 4.0.1 software or Biacore T100 Evaluation software. Purified antibodies or DVD-Ig molecules were diluted in running buffer for capture across goat anti-human Fc reaction surfaces. Antibodies or DVD-Ig molecules to be captured as a ligand (1 μg/ml) were injected over reaction matrices at a flow rate of 10 μl/minute. During the assay, all measurements were referenced against the capture surface alone (i.e., with no captured antibody or DVD-Ig molecule). […] The equilibrium dissociation constant KD (M) of the reaction between antibodies and the target antigen was then calculated from the kinetic rate constants by the following formula: KD=Koff/Kₒₙ. Binding was recorded as a function of time and kinetic rate constants were calculated.
For B1, the Kd was at most 0.017 nM.
Same read-out and setting: the figure for B2 is at most 2.9 nM; for B3 it is at most 72 nM; for B4 it is at most 0.1 nM.
On the same count and under the same terms, the figure for B5 is at most 0.49 nM.

For a further experiment, the target named is T2, recombinant human PDGF-BB. The experiment in a line: cell-based or functional assay.
Take B6: the “Phospho-Tyr751/hPDGF-BB Neutralization” value was 1.62 nM and the “huPDGF-BB Neutralization Potency (nM) in NIH-3T3 Cells” value is above 5 nM.
The like results for B7 were, in that order, 0.923 nM and 0.741 nM.
The like results for B8 were, in that order, 1.06 nM and above 5 nM.

As a reminder, the kon is the second-order rate constant of association. Low readings indicate slow association, high ones fast association. The IC50 is the point on the concentration scale where inhibition reaches its midpoint. A word on the Kd: it is the constant that tells how readily two partners part at equilibrium.
